Values of other authors, collected in patent publication US5397694A, “Protease inhibitor” (Merck Patent GmbH, priority 1989, dated 1995).

B1: Eglin C: Eglin variant with tyrosine where Eglin B has histidine (protein, UniProt P01051 1-70, looked up)
Eglin C: TEFGSELKSFPEVVGKTVDQAREYFTLHYPQYDVYFLPEGSPVTLDLRYNRVRVFYNPGTNVVNHVPHVG
**Q.** With B1 as the molecule, how does the “isoelectric point (pI), published report” value read?
**A.** 6.45
